The supplement of paper PMC10899765

What was measured:
Details in all cases: 20 nM; 72 h
[1] = tested on: MCF10A; test: one-nucleolus phenotype percent effect (relative to siNT 0% and siNOL11 100%); higher = more cells with one nucleolus (ribosome biogenesis inhibition)
Method: (§1)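 After 72 h, cells were fixed and stained with Hoechst and anti-fibrillarin, and nucleoli per nucleus were counted with CellProfiler. Values are plate-adjusted percent effect for the one-nucleolus and 5+ nucleoli phenotypes, normalised to siNT (0%) and to the positive controls siNOL11 or siKIF11 (100%), as the mean of biological triplicates. Percent viability is the nuclei count relative to siNT.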

[2] = tested on: MCF10A; test: 5+ nucleoli phenotype percent effect (relative to siNT 0% and siKIF11 100%); higher = more cells with five or more nucleoli
Method: as §1

[3] = tested on: MCF10A; test: percent viability (nuclei count relative to siNT); higher = more viable cells
Method: as §1

Sequence	one-nucleolus phenotype percent effect [1] [%]	5+ nucleoli phenotype percent effect [2] [%]	percent viability [3] [%]
UGGGUCUUUGCGGGCGAGAUGA [hsa-miR-193a-5p]	26.5	-18.7	40.4
CCUCCGUGUUACCUGUCCUCUAG [hsa-miR-3605-3p]	0.086	-3.31	92.7
GGGGAAAGCGAGUAGGGACAUUU [hsa-miR-3153]	-1	13.5	55.6
GCGACCCACUCUUGGUUUCCA [hsa-miR-551a]	-18	39.1	81.6
AGAGCUCACAGCUGUCCUUCUCUA [hsa-miR-3670]	17.6	-9.38	25.7
UUAGACCUAGUACACGUCCUU [hsa-miR-3684]	-19.2	16.1	85.2
AGGAAGCAAGAGAACCCUGUGG [hsa-miR-6828-5p]	18.9	-41.5	26.9
CGUCCCGGGGCUGCGCGAGGCA [hsa-miR-4449]	-6.92	-7.62	75.7
UCUAUACAGACCCUGGCUUUUC [hsa-miR-1284]	-16.5	31.3	75.8
UGUGACUGCAUUAUGAAAAUUCU [hsa-miR-3118]	20.9	5.27	26.7
CUUAGCAGGUUGUAUUAUCAUU [hsa-miR-374b-3p]	-6.79	-9.55	67.5
UGGGAACGGGUUCCGGCAGACGCUG [hsa-miR-1292-5p]	13.5	-16.7	60.3
CCUGAGCCCGGGCCGCGCAG [hsa-miR-1199-5p]	-24.2	27.4	71.4
UGUUGCAAGUCGGUGGAGACGU [hsa-miR-4684-3p]	4.39	-9.23	43.9
ACUGGACUUGGAGUCAGGA [hsa-miR-378e]	11.5	-3.63	26.4
UCGGAUCCGUCUGAGCUUGGCU [hsa-miR-127-3p]	14.4	-26.8	41.5
UGAGUCAGCAACAUAUCCCAUG [hsa-miR-5702]	-25.5	52.5	86.4
UCUCUGAGCAAGGCUUAACACC [hsa-miR-4653-5p]	18.9	-12.4	50.6

Sequence	one-nucleolus phenotype percent effect [1] [%]	5+ nucleoli phenotype percent effect [2] [%]	percent viability [3] [%]
GAAGUGCUUCGAUUUUGGGGUGU [hsa-miR-373-3p]	-22.2	47.5	65.4
UCCGAACUCUCCAUUCCUCUGC [hsa-miR-6716-3p]	-19.3	35.3	166
UGGUAGAGCUGAGGACA [hsa-miR-4451]	-7.47	9.42	16.3
GCCCUCUGUCACCUUGCAGACG [hsa-miR-2276-5p]	-20.8	60.2	103
GCAUUGUGCAGGGCUAUCA [hsa-miR-4289]	-8.06	7.06	35
CUGGGGGUGGGGGGCUGGGCGU [hsa-miR-6803-5p]	-13.5	16	86.6
AGGUUGACAUACGUUUCCC [hsa-miR-563]	-18	46.2	70.5
CUGCCCUGGCCCGAGGGACCGA [hsa-miR-874]	4.65	-5.29	62.9
GAGGUUUUCUGGGUUUCUGUUUC [hsa-miR-329-5p]	-9.91	17.3	56
AAAACGGUGAGAUUUUGUUUU [hsa-miR-553]	-24.2	65.7	103
CAAAAGCAAUCGCGGUUUUUGC [hsa-miR-548e-5p]	-2.62	44	60.8
GCUCCCUCUAGGGUCGCUCGGA [hsa-miR-4469]	-24.8	66	67.3
CAAAUGGACAGGAUAACACCU [hsa-miR-4694-3p]	11.8	-11.7	35.9
UGGGCUCAGGGUACAAAGGUU [hsa-miR-4437]	28.8	-5.83	24.3
AACAAUAUCCUGGUGCUGAGUG [hsa-miR-338-5p]	-0.375	-1.58	47.6
CGUGUAUUUGACAAGCUGAGUU [hsa-miR-223-5p]	31.4	-35	20
CUACAAAGGGAAGCCCUUUC [hsa-miR-520d-5p]	28.4	-47.9	39.7
CACUAGAUUGUGAGCUCCUGGA [hsa-miR-28-3p]	-9.21	12.4	92.2
